Each structure is given as a SMILES string. Read-outs that look alike come from different tables or passages of the source.

In series [1] the target is T1, gastrin-releasing peptide receptor (GRPR) (Homo sapiens, UniProt P30550).
T1 construct: host or cells: Human Embryonic Kidney 293 cells (HEK-GRPR)
Kind of series: Competitive displacement assay on stably GRPR-transfected HEK cells using [125I]-Tyr4-bombesin. Format: binding. The settings on record: [125I]-Tyr4-bombesin as competitor, 1 h, ambient temperature, read-out: IC50 (GRPR affinity). On the procedure:
(§1) Competitive receptor binding assay
(§2) Stably GRPR-transfected Human Embryonic Kidney 293 cells (HEK-GRPR) were cultured at 37°C in Dulbecco’s Modified Eagle’s Medium (DMEM, high glucose, GlutaMax-I, 500 mL) […]
a humidified atmosphere containing 5 % CO2. The medium was exchanged every two or three days and cells were split at >75 % confluence. In vitro binding affinities were determined via competitive displacement experiments which were performed at least trice, each experiment performed in triplicate. A Millipore Multiscreen punch kit and Millipore 96 well filter plates (pore size 1.2 µm) were used. The plates were incubated with PBS/BSA (1%) solution (each well 200 µL) for one hour before use. HEK-GRPR cells were harvested and suspended carefully in Opti-MEM I (GlutaMAX I) medium. 50 µL of a cell suspension containing […] were seeded in each well. To this, a total volume of 50 µL was added to each well, containing 25 µL (0.012 […]
The competitor was added in 11 increasing concentrations ranging from 0.25 – 500 nM for 6 – […]
binding of the radioligand. After one hour of incubation at ambient temperature, the solution was filtrated and the filters were washed with cold PBS (3 times). The filters were collected and […]

Series [2] is described as follows: LogD determination of 68Ga-labeled MIUs and bioconjugates (water/1-octanol partition, γ-counter). The settings on record: pH 7.4. On the procedure: Following the synthesis of the MIUs 6 a–13 a and the corresponding bioconjugates 6–13, the radiolabeling efficiency of the compounds with ^68Ga^3+ was investigated. […] In the following, we investigated the lipophilicity of the MIUs [^68Ga]6 a–[^68Ga]13 a and their bioconjugates [^68Ga]6–[^68Ga]13 (Table 1 and Figure 2 C,D).
(§3) A solution of the respective multimodal imaging unit (MIU) 6a – 13a (5 nmol) or multimodal imaging agent 6 - 14 (5 nmol) in H2O (Tracepur quality, 1mM) was added to 90 - 120 MBq of [68Ga]GaCl in a solution obtained by fractioned elution of an IGG 68Ge/68Ga generator system […]
(§4) with HCl (0.1 M, 1.6 mL) and subsequent titration to pH 3.5 – 4.2 by addition of sodium acetate solution (1.25 M, 50 – 75 µL). All labeling experiments were performed by addition of 2 mg ascorbic acid to suppress radiolysis-induced product fragmentation. In the labeling experiments of the MIUs 6a – 13a, 1 - 4 mg TCEP x HCl were added and the pH was adjusted to 3.5 – 4.2 by addition of sodium acetate solution (1.25 M). After reaction for 10 min at 45°C, the reaction mixtures were analyzed by analytical radio-HPLC.
(§5) For 68Ga-6/6a – 68Ga-13/13a, the water/1-octanol partition coefficient (log ) was determined by […]
adding 5 µL of the respectively 68Ga-labeled compound (0.8 – 1.2 MBq) to a mixture of phosphate buffer (0.05 M, pH 7.4, 795 µL) and 1-octanol (800 µL). The mixtures were intensively shaken for 5 minutes on a vibrating plate. After subsequent centrifugation at 13 000 rpm for 5 min, 125 µL were taken from each phase and measured in a γ-counter. The logD values were calculated from three or four independent experiments, each performed in triplicate.
For 14, the water/1-octanol partition coefficient (logD) was determined by semipreparative HPLC.
For this purpose, 10 µL solution (c = 5 x 10-4 mol/L) of the substance were added to a mixture of 1 mL 1-octanol and 990 µL phosphate buffered solution (0.05 M, pH 7.4) and the mixture was vigorously shaken for 5 minutes. After centrifugation, the phases were separated and both phases were analyzed by semipreparative HPLC. The logD was determined by three separate measurements, each experiment performed in triplicate.
as §1, §2
a humidified atmosphere containing 5 % CO2. The medium was exchanged every two or three days and cells were split at >75 % confluence. In vitro binding affinities were determined via competitive displacement experiments which were performed at least trice, each experiment performed in triplicate. A Millipore Multiscreen punch kit and Millipore 96 well filter plates (pore size 1.2 µm) were used. The plates were incubated with PBS/BSA (1%) solution (each well 200 µL) for one hour before use. HEK-GRPR cells were harvested and suspended carefully in Opti- […]

Series [3] is described as follows: Photophysical properties (absorption and emission spectra in PBS). Format: physicochemical. The settings on record: for λem: 1×10^−5 mol L^−1, excitation wavelength λex=400 nm. An excerpt:
After studying the chemical and biological properties of the MIUs and their corresponding multimodal imaging agents, the photophysical properties of the substances were finally under investigation. Here, we found no significant decrease or shift of the optical and fluorescent characteristics of the bioconjugates compared to the MIUs (Table 2).
Fig. S27 Normalized absorption and emission spectra of 7 (left) and 7a (right), recorded in PBS
at a concentration of c = 1.0 x 10-5 mol/L, emission wavelength stated in the graph (bottom, left
Fig. S28 Normalized absorption and emission spectra of 8 (left) and 8a (right), recorded in PBS
Fig. S29 Normalized absorption and emission spectra of 9 (left) and 9a (right), recorded in PBS […]
Fig. S30 Normalized absorption and emission spectra of 10 (left) and 10a (right), recorded in
PBS at a concentration of c = 1.0 x 10-5 mol/L, emission wavelength stated in the graph (bottom,
Fig. S31 Normalized absorption and emission spectra of 11 (left) and 11a (right), recorded in
Fig. S32 Normalized absorption and emission spectra of 12 (left) and 12a (right), recorded in […]

The subject of series [4] is PC-3 cells. Kind of series: Confocal fluorescence microscopy on GRPR-positive PC-3 cells. Format: cell-based, human. The settings on record: 10 μM, 4 h incubation. On the procedure: Figure 4 Confocal fluorescence microscopy images for pyridinium-based bioconjugate […]). […] (B) NIR detector window (660-720 nm, 6). (C) Transmitted light. […] After one hour of incubation at ambient temperature, the solution was filtrated and the filters were washed with cold PBS (3 times). The filters were collected and measured by γ-counting. […] were calculated by fitting the obtained data via a nonlinear regression analysis using GraphPad Prism Software (v5.04). […] PC-3 cells were cultured at 37°C in RPMI 1640 medium supplemented with 10% FCS, 1% L-Glutamine and 1% PenStrep in a humidified atmosphere containing 5% CO2. […] Fluorescence microscopy was performed on a Leica TCS SP8 confocal microscope with laser excitation wavelengths of 405 and 638 nm. Overlays of microscopies were generated directly with the operating software or afterwards using FIJI software (v1.50e). PC-3 cells (4 x 104) were seeded two days prior to the measurements in six-well culture plates, each well was equipped with cover slips for microscopy. Medium was exchanged after 24h. After 2 days, the medium was removed and the cells were washed carefully with PBS. Then, 1 mL of a 10 μM solution of 6 in antibiotic-free medium was added, followed by incubation for 4h. […]

The format of series [5] is physicochemical. The settings on record: pH 7.4. On the procedure: as §3, §4, §5
adding 5 µL of the respectively 68Ga-labeled compound (0.8 – 1.2 MBq) to a mixture of phosphate buffer (0.05 M, pH 7.4, 795 µL) and 1-octanol (800 µL). […] After subsequent centrifugation at 13 000 rpm for 5 min, 125 µL were taken from each phase and measured in a γ-counter. The logD values were calculated from three or four independent experiments, each performed in triplicate.
For 14, the water/1-octanol partition coefficient (logD) was determined by semipreparative HPLC. […]

T1 sequence (P30550 whole entry, species assumed): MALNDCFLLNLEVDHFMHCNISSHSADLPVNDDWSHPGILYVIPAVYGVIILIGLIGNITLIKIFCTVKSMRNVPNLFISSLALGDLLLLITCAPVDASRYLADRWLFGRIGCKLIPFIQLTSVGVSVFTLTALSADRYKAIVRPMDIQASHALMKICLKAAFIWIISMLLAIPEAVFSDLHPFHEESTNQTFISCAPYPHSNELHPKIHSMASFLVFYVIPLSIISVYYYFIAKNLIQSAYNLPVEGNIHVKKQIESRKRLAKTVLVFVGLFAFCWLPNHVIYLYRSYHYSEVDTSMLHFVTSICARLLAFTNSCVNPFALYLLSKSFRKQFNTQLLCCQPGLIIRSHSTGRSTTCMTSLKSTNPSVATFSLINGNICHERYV

Take `CSCC[C@H](NC(=O)[C@H](CC(C)C)NC(=O)[C@H](Cc1c[nH]cn1)NC(=O)CNC(=O)[C@@H](NC(=O)[C@H](C)NC(=O)[C@H](Cc1c[nH]c2ccccc12)NC(=O)[C@H](CCC(N)=O)NC(=O)CCOCCOCCOCCOCCNC(=O)CON=Cc1ccc(C(=O)NCCCN(CCCNC(=O)c2ccc(C=NOCC(=O)NCCOCCOCCOCCOCCC(=O)N[C@@H](CCC(N)=O)C(=O)N[C@@H](Cc3c[nH]c4ccccc34)C(=O)N[C@@H](C)C(=O)N[C@H](C(=O)NCC(=O)N[C@@H](Cc3c[nH]cn3)C(=O)N[C@@H](CC(C)C)C(=O)N[C@@H](CCSC)C(N)=O)C(C)C)cc2)CC(=O)N[C@H](CSC2CC(=O)N(CCN3C(=O)CC(SC[C@H](NC(=O)[C@H](CCCCNC(=O)c4cc5cc6c7c(c5oc4=O)CCCN7CCC6)NC(=O)CC[C@H](C(=O)O)N4CCN(CC(=O)O)CCN(CC(=O)O)CC4)C(N)=O)C3=O)C2=O)C(=O)NCCOCCOCC(N)=O)cc1)C(C)C)C(N)=O` (some centres unmarked) [Compound 12]: the IC50 in series [1] was 20.9 ± 1.67 nM. In addition, the logD in series [2] is -1.72 ± 0.13. Moreover, in series [3] (1×10^−5 mol L^−1), the “Log ϵ” value came to 4.30 M ^−1 cm^−1, the Stokes shift is listed as 40 nm and the λ max worked out at 455 nm. This compound also returned a λem in series [3] of 495 nm.
Consider `CSCC[C@H](NC(=O)[C@H](CC(C)C)NC(=O)[C@H](Cc1c[nH]cn1)NC(=O)CNC(=O)[C@@H](NC(=O)[C@H](C)NC(=O)[C@H](Cc1c[nH]c2ccccc12)NC(=O)[C@H](CCC(N)=O)NC(=O)CCOCCOCCOCCOCCNC(=O)CON=Cc1ccc(C(=O)NCCCN(CCCNC(=O)c2ccc(C=NOCC(=O)NCCOCCOCCOCCOCCC(=O)N[C@@H](CCC(N)=O)C(=O)N[C@@H](Cc3c[nH]c4ccccc34)C(=O)N[C@@H](C)C(=O)N[C@H](C(=O)NCC(=O)N[C@@H](Cc3c[nH]cn3)C(=O)N[C@@H](CC(C)C)C(=O)N[C@@H](CCSC)C(N)=O)C(C)C)cc2)CC(=O)N[C@H](CSC2CC(=O)N(CCN3C(=O)CC(SC[C@H](NC(=O)[C@H](CCCC[n+]4c(C)cc(/C=C/c5cc6c7c(c5)CCCN7CCC6)cc4C)NC(=O)CC[C@H](C(=O)O)N4CCN(CC(=O)O)CCN(CC(=O)O)CC4)C(N)=O)C3=O)C2=O)C(=O)NCCOCCOCC(N)=O)cc1)C(C)C)C(N)=O` (some centres unmarked) [Compound 6], for which the IC50 in series [1] amounted to 19 ± 1.13 nM. Further, the log distribution coefficient (logD) in series [2] is -1.71 ± 0.05. For the same compound, in series [3] (1×10^−5 mol L^−1), the “Log ϵ” value is 4.08 M ^−1 cm^−1 and the λ max turned out to be 510 nm. The same compound returned a λem in series [3] of 630 nm. Moreover, the “cellular localization of the agent” value in series [4] is given as “cytoplasmic localization”.
Consider `CSCC[C@H](NC(=O)[C@H](CC(C)C)NC(=O)[C@H](Cc1c[nH]cn1)NC(=O)CNC(=O)[C@@H](NC(=O)[C@H](C)NC(=O)[C@H](Cc1c[nH]c2ccccc12)NC(=O)[C@H](CCC(N)=O)NC(=O)CCOCCOCCOCCOCCNC(=O)CON=Cc1ccc(C(=O)NCCCN(CCCNC(=O)c2ccc(C=NOCC(=O)NCCOCCOCCOCCOCCC(=O)N[C@@H](CCC(N)=O)C(=O)N[C@@H](Cc3c[nH]c4ccccc34)C(=O)N[C@@H](C)C(=O)N[C@H](C(=O)NCC(=O)N[C@@H](Cc3c[nH]cn3)C(=O)N[C@@H](CC(C)C)C(=O)N[C@@H](CCSC)C(N)=O)C(C)C)cc2)CC(=O)N[C@H](CSC2CC(=O)N(CCN3C(=O)CC(SC(C)(C)C)C3=O)C2=O)C(=O)NCCOCCOCC(N)=O)cc1)C(C)C)C(N)=O` (some centres unmarked) [Compound 14], for which, in series [1], the half-maximal inhibitory concentration (IC50) was 18.7 ± 1.37 nM. The same compound returned a logD in series [5] of -0.88 ± 0.04.

For the origin of these results see article PMC7756681, “Functional Hybrid Molecules for the Visualization of Cancer: PESIN‐Homodimers Combined with Multimodal Molecular Imaging Probes for Positron Emission Tomography and Optical Imaging: Suited for Tracking of GRPR‐Positive Malignant Tissue” (Chemistry (Weinheim an Der Bergstrasse, Germany), 2020).
